Data from the supplement of paper PMC9170038.

Tested on: MS2 coat protein
Assay: apparent KD of MS2 coat protein; designed switch direction (-1 OFF switch, 1 ON switch): 1; higher = weaker reporter binding
Method in brief: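 Designed RNA switches with common flanks were made on Illumina chips by stalled E. coli RNA polymerase. Titration with SNAP-549-labelled MS2 coat protein doubled from 0.7 or 1.5 nM up to 3 µM. Apparent KD is each design's median over clusters after curve-fitting normalised fluorescence.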

[1] = input ligand: microRNA oligo, concentration not stated
[2] = Eterna round: R95, input ligand: FMN 200 uM
[3] = Eterna round: R95, input ligand: microRNA oligo, concentration not stated
[4] = Eterna round: R95, input ligand: none

GAGAGAGGGCGAGGAUAUUCGGUGAUAAUGAUGGGAGAAGGCGCAGACAUGAGGAUCACCCAUGUGGGAAUAAUCCAGAGAGAG [Parity 13 - Jieux - Same State NG 1] (Eterna round: R96, puzzle: Same State NG 1)
apparent KD of MS2 coat protein (input ligand: FMN 200 uM): 151 nM
apparent KD of MS2 coat protein [1]: 111 nM
apparent KD of MS2 coat protein (input ligand: none): 185 nM

UUGAAGAAUUAAGGAUAUCGAGUACAUAUGUUAAACAUGAGGAUCACCCAUGUGGGUUGCGGUAUCGAGAAGGUAAAAUACAAG [Mat - Same State NG 2 - JL mod - D58] (Eterna round: R96, puzzle: Same State NG 2)
apparent KD of MS2 coat protein (input ligand: FMN 200 uM): 28.8 nM
apparent KD of MS2 coat protein [1]: 26.6 nM
apparent KD of MS2 coat protein (input ligand: none): 33.8 nM

UGCUUCGUGUAAGGAUAUGCAGCCGUUUCGGCUGCAGAAGGUACUAUAAUACAUGAGGAUCACCCAUGUCUCUCGCUUUGCGGG [salish99_SSng1_r04_304] (Eterna round: R96, puzzle: Same State NG 1)
apparent KD of MS2 coat protein [1]: 43.4 nM

UCUUGGUUUUUGCUCGUUUUUUGUGUUGAACAUGAGGAUCACCCAUGUAUUGUACGGUCCAAUUUGGUAAUGGUCCG [JMF 29] (puzzle: Sensor for hsa-mir-208a)
apparent KD of MS2 coat protein [2]: 25.2 nM
apparent KD of MS2 coat protein [3]: 15.6 nM
apparent KD of MS2 coat protein [4]: 26.8 nM

UGCUAGUGGGUAGGAUAUUUAGGAUAUGCGGAAGACUAAGUCUGUAGGUCACCUAACGCAGAAGGAGAGAAGGACCCUUCAGCU [pwkr ssNG2 2FMN + F9.29] (Eterna round: R96, puzzle: Same State NG 2)
apparent KD of MS2 coat protein (input ligand: FMN 200 uM): 143 nM
apparent KD of MS2 coat protein [1]: 16.8 nM
apparent KD of MS2 coat protein (input ligand: none): 12.8 nM

CGCAAAGUGUGAGGAUAUUCACACAUGAGGAUCACCCAUGUGACGGUUCCGGCCAGAGGAGAGCAGGAGAAGGCACAACGCGAG [Eternabot solution 5] (Eterna round: R96, puzzle: Same State NG 2)
apparent KD of MS2 coat protein (input ligand: FMN 200 uM): 36.1 nM
apparent KD of MS2 coat protein [1]: 101 nM
apparent KD of MS2 coat protein (input ligand: none): 120 nM

GGAAUAUUUACAGGAUAUGAGUUGUAAAGUCGAUCAGAAGGGUAGAUGUCUUACACGGUGUGUUACAUGAGGAUCACCCAUGUU [SameState NG1 #19] (Eterna round: R96, puzzle: Same State NG 1)
apparent KD of MS2 coat protein (input ligand: FMN 200 uM): 169 nM
apparent KD of MS2 coat protein [1]: 160 nM
apparent KD of MS2 coat protein (input ligand: none): 218 nM

CUGAGCGAUCAAGGAUAUCACGUCGAUUAGACGUGAGAAGGUGAUCAUAACAUGAGGAUCACCCAUGUAUUACAUGAAGCUCAG [SSNG1/2-A2] (Eterna round: R96, puzzle: Same State NG 1)
apparent KD of MS2 coat protein (input ligand: FMN 200 uM): 386 nM
apparent KD of MS2 coat protein [1]: 146 nM
apparent KD of MS2 coat protein (input ligand: none): 1620 nM

GAGAGAGGAAGCGAGGAUAUCGUGUUGGGUACAUGAGGAUCACCCAUGUUGUAGGUAGAGGUAGGCGAGAAGGCGCAGGAGAGGU [JR_SS2_Sub096] (puzzle: Same State 2)
apparent KD of MS2 coat protein [2]: 105 nM
apparent KD of MS2 coat protein [3]: 67 nM
apparent KD of MS2 coat protein [4]: 195 nM

GGUCCAGCCUGAGCUGGACAAAAGCAUGUACAUGAGGAUCACCCAUGUUCAUGUACAAGCUUUUUGCUCGUCUUAAU [salish99_208a_r3_036] (puzzle: Sensor for hsa-mir-208a)
apparent KD of MS2 coat protein [2]: 525 nM
apparent KD of MS2 coat protein [3]: 15 nM
apparent KD of MS2 coat protein [4]: 492 nM

GAGUAGUUGGGAGGAUAUCGAUUGUUAUAGAAUCGAGAAGGUUCUAACAUGAGGAUCACCCAUGUAGGACUAUUCCUGUGUAUC [Parity 74 - Jieux - Same State NG 1] (Eterna round: R96, puzzle: Same State NG 1)
apparent KD of MS2 coat protein [1]: 37.3 nM

GGAGCCGGCACUGAGGAUAUUCAUAUUAAAACAUGAGGAUCACCCAUGUAGGCCAGAAGGCCUUGGGAGAAGGCAGGUCGGCUCG [Arinin] (Eterna round: R96, puzzle: Same State 2)
apparent KD of MS2 coat protein (input ligand: FMN 200 uM): 20 nM
apparent KD of MS2 coat protein [1]: 188 nM
apparent KD of MS2 coat protein (input ligand: none): 283 nM

GGUCCCUACGCACAGGAUAUUCUUUUGGCAACAUGAGGAUCACCCAUGUGUGCCGAUCAUGGUUAGAAGAAGGGUGGUAGGGACC [Usisus] (Eterna round: R96, puzzle: Same State 2)
apparent KD of MS2 coat protein (input ligand: FMN 200 uM): 10 nM
apparent KD of MS2 coat protein [1]: 10.5 nM
apparent KD of MS2 coat protein (input ligand: none): 19.8 nM

UUACUCAUGUAAGGAUAUGCAGCCGAAACGGCUGCAGAAGGUACUAUAAUACAUGAGGAUCACCCAUGUCUUUUUAAUUUAGAC [Mat - Same State NG 1 - JL mod - D82] (Eterna round: R96, puzzle: Same State NG 1)
apparent KD of MS2 coat protein [1]: 37 nM

GGUCGGACAAAACAUGAGGAUCACCCAUGUCCGGAAACGGCAUAGGAUAUCUGUCCGAAAAGGUCAGAGAAGGGUGAACCGACC [Fiskers NG3ss - 70] (Eterna round: R96, puzzle: Same State NG 3)
apparent KD of MS2 coat protein (input ligand: FMN 200 uM): 91.2 nM
apparent KD of MS2 coat protein [1]: 26.1 nM
apparent KD of MS2 coat protein (input ligand: none): 140 nM

AGUCCAGCCUGAGCUGGACAAAAGCAUGUACAUGAGGAUCACCCAUGUUUAUGUACAAGCUUUUUGCUCGUCUUAAA [Zipper 52 - 12] (puzzle: Sensor for hsa-mir-208a)
apparent KD of MS2 coat protein [2]: 257 nM
apparent KD of MS2 coat protein [3]: 16.2 nM
apparent KD of MS2 coat protein [4]: 313 nM

AGUCCAGCCUGAGCUGGACAAAAGCAUGUACAUGAGGAUCACCCAUGUCAUGUACAGGCUUUUUGCUCGUCUUAAUA [Zipper 49 - 7] (puzzle: Sensor for hsa-mir-208a)
apparent KD of MS2 coat protein [2]: 433 nM
apparent KD of MS2 coat protein [3]: 16.8 nM
apparent KD of MS2 coat protein [4]: 583 nM

AACCAACAAAUAAAACAAGCGUGCUCGUCACAUGAGGAUCACCCAUGUUUAAGCGCUGUUCCUACAUCCGCAGCGCC [Inbitiar] (puzzle: Sensor for hsa-mir-208a)
apparent KD of MS2 coat protein [2]: 178 nM
apparent KD of MS2 coat protein [3]: 32.5 nM
apparent KD of MS2 coat protein [4]: 232 nM

GUUAAACAUGAGGAUCACCCAUGUAAUAUAAUGGGAGGAUAUCUGAAUUAAUUAAAUUAAGGAGAAGGCCUAAUGG [Mat - Same State 1 - Mod of Eli - D51] (puzzle: Same State 1)
apparent KD of MS2 coat protein [2]: 83.3 nM
apparent KD of MS2 coat protein [3]: 481 nM
apparent KD of MS2 coat protein [4]: 608 nM

UGGUACAUGGGAGGAUAUCCUCAGGAGACAUGAGGAUCACCCAUGUAAUUAAAGCCGAAAGGCAUGGAGAAGGCCCAUGUACCU [JL SSNG1 3.79] (Eterna round: R96, puzzle: Same State NG 2)
apparent KD of MS2 coat protein (input ligand: FMN 200 uM): 20.1 nM
apparent KD of MS2 coat protein [1]: 172 nM
apparent KD of MS2 coat protein (input ligand: none): 131 nM

UAAAUACAUGAGGAUCACCCAUGUCAAAAGACAUGAGGAUAUGUACAGUCUUCGGUCUGUACAGAAGGCAUGAAUA [salish99_ss1_r3_097] (puzzle: Same State 1)
apparent KD of MS2 coat protein [3]: 434 nM

AACCCGAUGGAAGGAUAUGGCACCUUAUUGGUGCCAGAAGGUCCAAACAUGAGGAUCACCCAUGUGGGCCGGUCGAAAGACCGG [Fiskers NG1ss - 11] (Eterna round: R96, puzzle: Same State NG 1)
apparent KD of MS2 coat protein (input ligand: FMN 200 uM): 32.4 nM
apparent KD of MS2 coat protein [1]: 53.2 nM
apparent KD of MS2 coat protein (input ligand: none): 75.2 nM

UGACAAGUGGUAGGAUAUCCAUGACAUGAGGAUCACCCAUGUUCUUUUGGUGUCCGUCACGGACGGGAGAAGGACCAACAUGAG [Same State NG2 S3] (Eterna round: R96, puzzle: Same State NG 2)
apparent KD of MS2 coat protein (input ligand: FMN 200 uM): 10.1 nM
apparent KD of MS2 coat protein [1]: 9.45 nM
apparent KD of MS2 coat protein (input ligand: none): 12.9 nM

GCCGAACAUGAGGAUCACCCAUGUCUGGGUAAUCAAGGAUAUGGGAAGGCUUUGCCAUGACCAGAAGGUGGUUAUC [Zari] (Eterna round: R96, puzzle: Same State 1)
apparent KD of MS2 coat protein (input ligand: FMN 200 uM): 26.3 nM
apparent KD of MS2 coat protein [1]: 38.9 nM
apparent KD of MS2 coat protein (input ligand: none): 53.5 nM

GGUCCGGCCUGAGCUGGACCGAAGCAUGUACAUGAGGAUCACCCAUGUCAUGUACAGGCUUUUUGCUCGUCUUGUUG [JL-shm-2.14 JL Mod] (puzzle: Sensor for hsa-mir-208a)
apparent KD of MS2 coat protein [2]: 691 nM
apparent KD of MS2 coat protein [3]: 17.2 nM
apparent KD of MS2 coat protein [4]: 746 nM

AGUCCAGCCAGAGCUGGACAAAAGCAUGUACAUGAGGAUCACCCAUGUUCAUGUACAAGCUUUUUGCAAGUCAAAAU [Mat - hsa-mir-208a - Mod of JL - 83] (puzzle: Sensor for hsa-mir-208a)
apparent KD of MS2 coat protein [2]: 614 nM
apparent KD of MS2 coat protein [3]: 16.8 nM
apparent KD of MS2 coat protein [4]: 1110 nM

GCCGCACAUGAGGAUCACCCAUGUAAUUACAUGGGAGGAUAUCAGUGCUCGAAAGAGCACUGAGAAGGCCUGAGGC [SS1 - Omei A v1] (puzzle: Same State 1)
apparent KD of MS2 coat protein [2]: 296 nM
apparent KD of MS2 coat protein [3]: 32.2 nM
apparent KD of MS2 coat protein [4]: 28.8 nM

UUGAUGUACUGAGGAUAUCGUGUCGUCUGAUUUUACAUGAGGAUCACCCAUGUGGGUUGUGGUAUCGAGAAGGCAGUUUUCUUA [JR_SSNG2_Sub029] (Eterna round: R96, puzzle: Same State NG 2)
apparent KD of MS2 coat protein (input ligand: FMN 200 uM): 50.4 nM
apparent KD of MS2 coat protein [1]: 84.3 nM
apparent KD of MS2 coat protein (input ligand: none): 158 nM

AAAACAUGAGGAUCACCCAUGUGUAAAAGAUACCGGAUGGUGCAGGAUAUAUCCCAUUAAAGUGGAUAGAAGGGUGGCAUCAAG [Eternabot solution 46] (Eterna round: R96, puzzle: Same State NG 3)
apparent KD of MS2 coat protein (input ligand: FMN 200 uM): 20.8 nM
apparent KD of MS2 coat protein [1]: 32.5 nM
apparent KD of MS2 coat protein (input ligand: none): 32.1 nM

GCUCGGCUGAUGGCCUACAUGAGGAUCACCCAUGUGAGUGGGCAGGAUAUCUAGAUUAAGGAUGUAGAGAAGGGCCUGCCGAGC [SameState NG3 #37] (Eterna round: R96, puzzle: Same State NG 3)
apparent KD of MS2 coat protein (input ligand: FMN 200 uM): 708 nM
apparent KD of MS2 coat protein [1]: 131 nM
apparent KD of MS2 coat protein (input ligand: none): 496 nM

GACCGCGAGGAAGGAUAUGGAGCCUUAUUGGCUCCAGAAGGUCCAUAAAGGACAUGAGGAUCACCCAUGUGGGUUGGAGCGGUC [Fiskers NG1ss - 0] (Eterna round: R96, puzzle: Same State NG 1)
apparent KD of MS2 coat protein (input ligand: FMN 200 uM): 32.8 nM
apparent KD of MS2 coat protein [1]: 96.2 nM
apparent KD of MS2 coat protein (input ligand: none): 176 nM
